Results taken from publication PMC11628620, “A core network in the SARS-CoV-2 nucleocapsid NTD mediates structural integrity and selective RNA-binding”.

Experiments:
[1] = target: T1, SARS-CoV-2 nucleocapsid NTD WT (SARS-CoV-2 (Wuhan-Hu-1), UniProt P0DTC9 44-180); experiment: MST; conditions: protein: recombinant; tags: His6-Trx cleaved by TEV; one extra N-terminal G; label: 3'-Cy5; transiently folds as stem-loop
[2] = target: SARS-CoV-2 nucleocapsid NTD WT (SARS-CoV-2 (Wuhan-Hu-1), UniProt P0DTC9 44-180); experiment: MST; conditions: protein: recombinant; tags: His6-Trx cleaved by TEV; one extra N-terminal G; label: 3'-Cy5; hairpin
[3] = target: T1, SARS-CoV-2 nucleocapsid NTD WT; experiment: EMSA; conditions: protein: recombinant; tags: His6-Trx cleaved by TEV; one extra N-terminal G; hairpin with 22 nt 3' extension

In the case of GGAUAAUUAAUAACUAAUUACU (ssRNA) [Ext (3'-Cy5)], the Kd [1] is reported as 0.334 ± 0.047 µM.

Work on GGGUGUGGCUGUCACUCGGCUGCAUGCUUAGUGCACUCACGCCC (structured_RNA) [SL4 (3'-Cy5)] yielded a Kd [2] of 14.1 ± 2.23 µM.

B1: SL4ext (structured_RNA)
RNA: GGUCUGUGUGGCUGUCACUCGGCUGCAUGCUUAGUGCACUCACGCAGUAUAAUUAAUAACUAAUUACUG
B1: binds [3].
